Assay results taken from patent US11905559B2, “Materials and methods for controlling gene expression” (priority 2016, dated 2024).
Several values for one entry are separate records, joined by “and”; a condition that tells them apart may be missing. Identical values can stand only once.

Legend:
[1] = Constant-force (CF) single-molecule optical tweezers folding assay of guanine-aptamer RNAs in guanine buffer; format: physicochemical; settings: for Folding rate kf / Transition distance ΔX / Unfolding rate ku / ΔG (0): 200 nM G; for ΔG (0): zero force
Text: The aptamer folding was monitored in real time using a constant-force (CF) assay. Equilibrium sampling techniques provide unprecedented insights into the rare events in the course of folding that are otherwise difficult to identify. The technique also allows for determination of the kinetic rates that has not been fully investigated in the guanine riboswitch. The relative dynamics of the helices have been investigated in ensemble and smFRET experiments, which indicated a non-dynamic P1-P3, upon which the P2 helix switches conformations. As shown in FIG. 6A (left panel), the RNA oscillated between the linear and the hairpin conformations (E↔D↔C) at 13 pN. The distances ΔXED=7.1±0.4 nm and ΔXDC=7.9±0.4 nm correspond to the folding of a 17±1 nt (P2) and 19±1 nt (P3) respectively (FIGS. 7A-B). The conversion of distances to nucleotides in CF assay are described in Table 2.
A miniaturized dual beam optical tweezers instrument was constructed with a sampling rate of 0.4, 4 and 40 kHz. Typically, in the tweezers set up (FIGS. 2A-E), a single-molecule of RNA is held between two beads via ˜550 nucleotide (nt) long Handles A and B. Preparation of Handles and the RNA is described in the section above. The streptavidin coated polystyrene bead (diameter 1.5-1.9 μm, Spherotech Inc.) is fixed on a micropipette via suction, and the anti-digoxigenin coated bead (diameter 4.0-4.9 μm, Spherotech Inc.) is held in the dual counter-propagating laser beam. The trap stiffness, K is measured at 0.04-0.06 pN/nm from the power spectrum analysis of the Brownian motion of the trapped bead. For power spectrum analysis, a polystyrene bead with diameter ˜4.6 μm is trapped in the counter-propagating laser beam in aqueous buffer with a fixed trap position. […] The average from 10 beads yielded K˜0.049±0.0008 pN/nm, and the stoke's drag coefficient, y=0.0364±0.0002 pN. s/μm. […] However, the autocorrelation time (τ0) defined as the τ1=1/2πfc as described by Zoldak et al., “Ultrafast folding kinetics and cooperativity of villin headpiece in single-molecule force spectroscopy”. Proc. Natl. Acad. Sci. U.S.A 110, 18156 (2013) sets the detection limit for the observable kinetics, which is different from the sampling frequencies. […] The ACF for the time series of force signal, Fi, with sampling rate δ and N data points, is calculated as,
In a constant-force (CF) experiment, the RNA is held at a preset force through feedback control. The preset force typically fluctuated around the mean with a standard deviation ±0.15 pN. In this mode, data is recorded from 4-40 kHz to capture the fast intermediates. The plots are shown as extension vs. time (as in FIG. 6A). In force-jump (FJ) assay, the force is suddenly jumped from one force to another, and then held constant thereafter, as shown in FIGS. 23A-B.
All FR, CF and FJ experiments were carried out at an ambient temperature, 25±0.5° C. The buffer in the microfluidics contained 10 mM Tris-HCl, pH 7.5 at 25° C., 250 mM NaCl, 3 mM MgCl2, and purine concentrations as indicated in wild-type aptamer. Unless stated otherwise, Mg^2+ concentration in the buffer was maintained at 3 mM in all experiments. The buffer in mutant m1 contained 5 mm Mg^2+ and 1 μM G, and in m3 contained 5 mM Mg^2+ and 200 nM Guanine. For the remaining m2, m4, m5 and m6 mutants, the buffer in single-molecule experiments was supplemented only with 3 mM Mg^2+ and 200 nM Guanine.
In the force-ramp experiment, the trap was moved away (pull cycle) from the micropipette at 200 nm/sec, which corresponded to a loading rate of 7-8 pN/sec. This movement of the trap exerted a tension at the ends of the tethered RNA aptamer. […] In the constant-force (CF) experiment, the RNA was held at a preset force (FIG. 6A). The loading rate in CF experiments was zero. The preset force typically fluctuated around the mean with standard deviation ±0.15 pN. […]

[2] = Isothermal titration calorimetry (ITC); format: binding
Protocol: For ITC experiments, wild-type G-aptamer and the mutant RNAs were synthesized by in vitro transcription of the DNA template and purified by denaturing polyacrylamide gel electrophoresis (PAGE). The ligand guanine was introduced in the syringe, while the RNA into the sample cell at a final concentration of 10 μM and 1 μM respectively. The concentrations were determined by absorbance reading using ε260=12010 M^−1 cm^−1 (guanine) and ε260=711400 M^−1 cm^−1 (RNA). The buffer in the syringe and the sample cell contained 50 mM K^+ Hepes (pH 7.5), 100 mM KCl, and 10 mM MgCl2. Binding reactions were performed at 30° C. on a MicroCal iTC200 instrument (Malvern) with a reference power of 6 μcal/sec, an initial delay of 60 secs and a stirring speed of 750 rpm. Guanine was titrated into the sample cell in 16 injections (2.5 μl each). The injection rate was 0.5 μl/sec and the spacing between the injections was maintained at 120 sec. Data was baseline corrected and fitted to a single-site binding model to obtain association constant (KA), stoichiometry (n) and binding enthalpy, ΔH. The dissociation constant (KD) and the binding free energy, ΔG was obtained from the fitted parameters using the following relations. All data analysis was performed using the Origin ITC software.
The ITC results are reported as mean±standard deviation from three independent experiments.

[3] = tested on: lac Z expression; experiment: β-galactosidase reporter assay (xpt-lacZ fusion); format: cell-based, B. subtilis; settings: presence and absence of guanine; B. subtilis
Protocol: Kissing-loop mutants were analyzed to determine whether they can exert riboswitch activities by controlling transcription termination, given that the guanine binding was retained in all of them. To test this, a β-galactosidase reporter assay was performed in B.subtilis. […] The gene expression is repressed in wild-type due to the transcription termination in the presence of guanine. […] The fast kissing dynamics between the L2-L3 probably have a stabilizing effect on P1, and therefore an increase in the transcription termination is observed. […] This underscores that the L2-L3 dynamics are directly involved in the P1-helix formation, which affects the terminator hairpin downstream that ultimately results in an alteration of the riboswitch activities.
To assess if the aptamer mutants can exert a transcriptional control similar to the previously reported wild-type xpt-pbuX riboswitch, a xpt-lacZ fusion was constructed as described by Mandal et al., “Riboswitches control fundamental biochemical pathways in Bacillus subtilis and other bacteria”. Cell 113, 577-586 (2003). Briefly, nts −121 to +197 relative to the transcriptional start site of the xpt-pbuX operon from B. subtilis 1A1 (BGSC, Columbus, Ohio) was PCR amplified and cloned upstream of the lacZ reporter gene into pDG1661 vector. After confirming the cloned sequence, plasmid variants were integrated into the amyE locus of the 1A1 strain. Transformants were selected for double markers, specifically for chloramphenicol (5 μg/ml) resistance and sensitivity to spectinomycin (100 μg/ml). Selected B. subtilis colonies were subsequently grown in minimal media (25 g/L K2HPO4·3H2O, 6 g/L KH2PO4, 1 g/L sodium citrate, 0.2 g/l MgSO4·7H2O, 2 g/L Na2SO4, 50 μM FeCl3, 2 μM MnCl2, 50 μg/ml L-Tryptophan, 50 μg/ml L-Lysine, 50 μg/ml L-Methionine, 0.4 g/100 ml glucose, and 0.2 g/100 ml glutamate) at 37° C. with vigorous shaking. Purines were added at a final concentration of 0.1 mg/ml. Cells were harvested at mid-logarithmic growth phase (A600˜0.1-0.4), and resuspended in the above buffer for the reporter assay. The color development was recorded by measuring absorbance, A420 at the end of the reaction with appropriate controls. Data is represented in Miller Units calculated from the following relation:
[formula] where Δt is the total duration taken in the substrate cleavage by […], measured as absorbance, A420. The Miller Units shown in FIG. 4A represents mean±standard deviation from 3 independent experiments, wherein each independent experiment was performed in duplicate.

[4] = transition C′A (merged C′B and BA), F 6.1 pN, 5 mM Mg^2+
[5] = transition BA (P1 folding), F 8.5 pN, 3 mM Mg^2+
[6] = transition C′B (L2-L3 folding), F 8.5 pN, 3 mM Mg^2+
[7] = transition DC (P3 folding), F 12.0 pN, 3 mM Mg^2+
[8] = transition ED (P2 folding), F 13.5 pN, 3 mM Mg^2+
[9] = transition C′A (merged C′B and BA), F 6.1 pN, 3 mM Mg^2+

B1: m3: m3 mutant guanine sensing aptamer RNA (SEQ ID NO: 4); G38 replaced with adenine in the L2 loop (nucleic acid)
chain: CACUCAUAUAAUCGCGUGGAUAUGACACGCAAGUUUCUACCGGGCACCGUAAAUGUCCGACUAUGGGUG
modifications: RNA, backbone and methylation of C not given here
notes: G38 replaced with adenine in the L2 loop
- Equilibrium force F^eq ([1]; transition C′A (merged C′B and BA), 5 mM Mg^2+, 200 nM G (rates at 6.1 pN)): 6 pN and 6.1 ± 0.02 pN
- Folding rate kf [1, 4]: 0.8 ± 0.05 s⁻¹
- Transition distance ΔX [1, 4]: 12.5 ± 0.4 nm
- Unfolding rate ku [1, 4]: 0.69 ± 0.05 s⁻¹
- ΔG (0) ([1]; transition C′A (merged C′B and BA), from data at 6.1 pN, 5 mM Mg^2+): −12.7 ± 0.6 kBT
- KD off relative to wild-type [2]: ~18 fold
- lac Z expression / transcriptional control (in words) [3]: completely de-repressed

B2: m8: m8 mutant guanine sensing aptamer RNA (SEQ ID NO: 9); A19G and U77C in the P1 hairpin (nucleic acid)
chain: CACUCGUAUAAUCGCGUGGAUAUGGCACGCAAGUUUCUACCGGGCACCGUAAAUGUCCGACUACGGGUG
modifications: RNA, backbone and methylation of C not given here
notes: A19G and U77C in the P1 hairpin
- Equilibrium force F^eq ([1]; transition BA (P1 folding), 3 mM Mg^2+, 200 nM G (rates at 8.5 pN)): 8.8 ± 0.2 pN
- Folding rate kf [1, 5]: 0.4 ± 0.05 s⁻¹
- Unfolding rate ku [1, 5]: 0.2 ± 0.05 s⁻¹
- Transition distance ΔX ([1]; transition BA (P1 folding), F 8.5 pN, 3 mM Mg^2+, no helix width adjustment): 9.5 ± 0.3 nm
- ΔG (0) ([1]; transition BA (P1 folding), from data at 8.5 pN, 3 mM Mg^2+): −14.3 kBT and −14.3 ± 0.7 kBT
- Equilibrium force F^eq ([1]; transition C′B (L2-L3 folding), 3 mM Mg^2+, 200 nM G (rates at 8.5 pN)): 8.4 ± 0.3 pN
- Folding rate kf [1, 6]: 1.4 ± 0.2 s⁻¹
- Transition distance ΔX [1, 6]: 3.6 ± 0.2 nm
- Unfolding rate ku [1, 6]: 1.5 ± 0.2 s⁻¹
- ΔG (0) ([1]; transition C′B (L2-L3 folding), from data at 8.5 pN, 3 mM Mg^2+): −7.4 ± 0.5 kBT
- Equilibrium force F^eq ([1]; transition DC (P3 folding), 3 mM Mg^2+, 200 nM G (rates at 12.0 pN)): 11.8 ± 0.1 pN
- Folding rate kf [1, 7]: 15.9 ± 0.4 s⁻¹
- Transition distance ΔX [1, 7]: 7.7 ± 0.2 nm
- Unfolding rate ku [1, 7]: 17.5 ± 0.5 s⁻¹
- ΔG (0) ([1]; transition DC (P3 folding), from data at 12.0 pN, 3 mM Mg^2+): −15.5 ± 0.6 kBT
- Equilibrium force F^eq ([1]; transition ED (P2 folding), 3 mM Mg^2+, 200 nM G (rates at 13.5 pN)): 13.5 ± 0.03 pN
- Folding rate kf [1, 8]: 10.5 ± 0.4 s⁻¹
- Transition distance ΔX [1, 8]: 7.0 ± 0.2 nm
- Unfolding rate ku [1, 8]: 13.2 ± 0.5 s⁻¹
- ΔG (0) ([1]; transition ED (P2 folding), from data at 13.5 pN, 3 mM Mg^2+): −16.0 ± 0.7 kBT
- lac Z expression / transcriptional control (in words) [3]: stringent control

B3: m2: m2 mutant guanine sensing aptamer RNA (SEQ ID NO: 3); G37A in L2 and C61U in L3 (nucleic acid)
chain: CACUCAUAUAAUCGCGUGGAUAUAGCACGCAAGUUUCUACCGGGCACUGUAAAUGUCCGACUAUGGGUG
modifications: RNA, backbone and methylation of C not given here
notes: G37A in L2 and C61U in L3
- Equilibrium force F^eq ([1]; transition C′A (merged C′B and BA), 3 mM Mg^2+, 200 nM G (rates at 6.1 pN)): 6 pN and 6.0 ± 0.03 pN
- Folding rate kf [1, 9]: 0.53 ± 0.06 s⁻¹
- Transition distance ΔX [1, 9]: 12.4 ± 0.4 nm
- Unfolding rate ku [1, 9]: 0.8 ± 0.11 s⁻¹
- ΔG (0) ([1]; transition C′A (merged C′B and BA), from data at 6.1 pN, 3 mM Mg^2+): −11.9 ± 0.6 kBT
- KD off relative to wild-type [2]: ~9 fold
- Kd ([2]; 30° C., 50 mM K^+ Hepes pH 7.5, 100 mM KCl, 10 mM MgCl2, read-out: KD for guanine): 36 ± 0.2 nM
- lac Z expression / transcriptional control (in words) [3]: completely de-repressed
